The source of these data is patent US12221480.

For assay [1], the target named is anti-CD20 (Rituxan) chimeric antigen receptor ACT2. The experiment in a line: flow cytometry, panel Donor 4 (δ3-08): cells transduced with the anti-CD20 CAR ACT2, stained with rat anti-Rituximab-FITC; no % sign is printed. On the technique in general: Flow cytometry measures light scatter and fluorescence of single cells or particles in a stream.
For assay [2] the target is unchanged. As to the kind of experiment: flow cytometry, panel Donor 4 (δ3-23): cells transduced with the anti-CD20 CAR ACT2, stained with rat anti-Rituximab-FITC; no % sign is printed.
Assay [3] has the same target. The experiment in a line: flow cytometry, panel Donor 3 (δ3-23): cells transduced with the anti-CD20 CAR ACT2, stained with rat anti-Rituximab-FITC; no % sign is printed.
For assay [4], the target named is recombinant human soluble γ2 δ3TCR-FC (wild type) (human) (UniProt B7Z8K6). As to the kind of experiment: Octet, γ2δ3TCR-hFc captured on anti-human Fc biosensor; row antibody δ3-58 taken as first (saturating), column antibody as second; 5 µg/mL each. For orientation: In BLI a coated tip is dipped into the sample, and binding shifts an interference pattern.
Assay [5] shares this target. The experiment in a line: Octet, γ2δ3TCR-hFc captured on anti-human Fc biosensor; row antibody δ3-08 taken as first (saturating), column antibody as second; 5 µg/mL each; self pair.
Assay [6] shares this target. The experiment in a line: Octet, γ2δ3TCR-hFc captured on anti-human Fc biosensor; row antibody δ3-23 taken as first (saturating), column antibody as second; 5 µg/mL each.
Assay [7] addresses γ2δ3 TCR-hFc mutant S2 (D26N, K85L in the Vδ3 chain) (human) (UniProt B7Z8K6). As to the kind of experiment: Luminex beads; TCR-hFc captured by goat anti-human Fc; antibody titrated.
For assay [8], the target named is γ2δ3 TCR-hFc mutant S9 (E67Q, D70N, R75Q, R95Q, E97Q in the Vδ3 chain) (human) (UniProt B7Z8K6). Described as above.
In assay [9] the target is γ2δ3 TCR-hFc mutant S6 (R75Q, R95Q in the Vδ3 chain) (human) (UniProt B7Z8K6). The assay is described as above.
In assay [10] the target is recombinant human soluble γ2 δ3TCR-FC (wild type) (human) (UniProt B7Z8K6). The description is as above.
The target in assay [11] is γ2δ3 TCR-hFc mutant S4 (E18Q in the Vδ3 chain) (human) (UniProt B7Z8K6). The assay is described as above.
The target in assay [12] is γ2δ3 TCR-hFc mutant S3 (K79L, H88F in the Vδ3 chain) (human) (UniProt B7Z8K6). The assay is described as above.
The target of assay [13] is γ2δ3 TCR-hFc mutant S8 (K79L, E18Q, H88F in the Vδ3 chain) (human) (UniProt B7Z8K6). The assay is described as above.
In assay [14] the target is γ2δ3 TCR-hFc mutant S11 (K79L, L82K, H88F in the Vδ3 chain) (human) (UniProt B7Z8K6). Described as above.
The target in assay [15] is γ2δ3 TCR-hFc mutant S7 (D57N, R65Q in the Vδ3 chain) (human) (UniProt B7Z8K6). Described as above.
Assay [16] has as its target γ2δ3 TCR-hFc mutant S10 (K3A, K79L, H88T in the Vδ3 chain) (human) (UniProt B7Z8K6). Described as above.
The target of assay [17] is γ2δ3 TCR-hFc mutant S5 (D70N, E67Q in the Vδ3 chain) (human) (UniProt B7Z8K6). The description is as above.
Assay [18] has as its target γ2δ3 TCR-hFc mutant S1 (D10N in the Vδ3 chain) (human) (UniProt B7Z8K6). The assay is described as above.
Assay [19] concerns the target recombinant human soluble γ2 δ3TCR-FC (wild type) (human) (UniProt B7Z8K6). The experiment in a line: Octet, γ2δ3TCR-hFc captured on anti-human Fc biosensor; row antibody δ3-31 taken as first (saturating), column antibody as second; 5 µg/mL each.
Assay [20] shares this target. The experiment in a line: Octet, γ2δ3TCR-hFc captured on anti-human Fc biosensor; row antibody δ3-08 taken as first (saturating), column antibody as second; 5 µg/mL each.
Assay [21] addresses γ2δ3 TCR-hFc mutant S3 (K79L, H88F in the Vδ3 chain) (human) (UniProt B7Z8K6). As to the kind of experiment: Luminex beads; TCR-hFc captured by goat anti-human Fc; antibody titrated; extrapolated value, no saturation achieved.
Assay [22] deals with γ2δ3 TCR-hFc mutant S8 (K79L, E18Q, H88F in the Vδ3 chain) (human) (UniProt B7Z8K6). The assay is described as above.
Assay [23] has as its target γ2δ3 TCR-hFc mutant S11 (K79L, L82K, H88F in the Vδ3 chain) (human) (UniProt B7Z8K6). The description is as above.
Assay [24] addresses γ2δ3 TCR-hFc mutant S10 (K3A, K79L, H88T in the Vδ3 chain) (human) (UniProt B7Z8K6). Described as above.
For assay [25], the target named is recombinant human soluble γ2 δ3TCR-FC (wild type) (human) (UniProt B7Z8K6). As to the kind of experiment: Octet, γ2δ3TCR-hFc captured on anti-human Fc biosensor; row antibody δ3-42 taken as first (saturating), column antibody as second; 5 µg/mL each.
For assay [26] the target is unchanged. As to the kind of experiment: Octet, γ2δ3TCR-hFc captured on anti-human Fc biosensor; row antibody δ3-58 taken as first (saturating), column antibody as second; 5 µg/mL each; self pair.
Assay [27] shares this target. As to the kind of experiment: Octet, γ2δ3TCR-hFc captured on anti-human Fc biosensor; row antibody δ3-42 taken as first (saturating), column antibody as second; 5 µg/mL each; self pair.
Assay [28] addresses γ2δ3 TCR-hFc mutant S9 (E67Q, D70N, R75Q, R95Q, E97Q in the Vδ3 chain) (human) (UniProt B7Z8K6). As to the kind of experiment: Luminex beads; TCR-hFc captured by goat anti-human Fc; antibody titrated; extrapolated value, no saturation achieved.

With aRitxmab-FITC (antibody), the percent of cells in the CAR+ gate in [1] was determined as 70.7%; in assay [2], 73.5%; in assay [3], 83.1%.

B1: δ3-08 (antibody, V domains shown)
VH: EEKLEESGGGLVQPGGSMKLSCVASGFIFSIYWMNWVRQSPEKGLEWVGQIRLKSDNYATHYAESVKGRFTISRDDSKSSVYLQMNNLRAEDTGIYYCMYYGSSYERFAYWGQGTLVTVSA
VL: DIQMIQSPASLSVSVGETVTITCRASENIYSNLAWYQQKQGKSPQLLVYVATKLADGVPSRFSGSGSGTQYSLKINSLQSEDFGSYYCQHFWGTPPWTFGGGTKLEIK
In general, EC50 refers to the midpoint of the concentration-response curve. Take B1: the paired-competition value (Octet signal of the second antibody per paragraph 256) is 0.04 in [4], 0.16 in [5], 0.04 in [6] and 0.24 in [19]. Moreover, the concentration giving a half-maximal response (EC50) in assay [7] came out at 0.07 nM; in assay [8], 0.07 nM; in assay [9], 0.06 nM; in [10] it was 0.06 nM; in assay [11] it was 0.06 nM; in assay [12] it was 0.05 nM. Moreover, the EC50 in [13] came out at 0.04 nM; in assay [14] it was 0.03 nM; in assay [15] it was 0.07 nM; in assay [16], 2.5 nM; in assay [17], 0.05 nM; in assay [18], 0.08 nM.

B2: δ3-58 (antibody, V domains shown)
VH: EVKLVESGGGLVQPGGSLKLSCAASGFTFSSYAMSWVRQTPEKRLEWVAYIRDGGGGTYYPDTVEGRFTISRDNAKNTLYLQMSSLKSEDTAMYYCARHPPMNDWFLYWGQGTLVTVSA
VL: DIQMTQSPASLSVSVGETVTITCRASENIYSHLAWYQQKQGKSPQLLVYAATNLADGVPSRFSGSGSGTQYSLKINSLQSEDFGSYYCQHFWGTPYTFGGGTKLEIKR
Take B2: the paired-competition value (Octet signal of the second antibody per paragraph 256) amounted to 0.22 in assay [20]; 0.03 in assay [6]; 0.37 in assay [19]; 0.06 in assay [25]; 0.03 in assay [26]. In addition, the EC50 in assay [7] was found to be 0.03 nM; in assay [8], 0.05 nM; in assay [9], 0.02 nM; in assay [10], 0.03 nM; in assay [11], 0.02 nM; in [15] it was 0.04 nM. Moreover, the EC50 in assay [17] was 0.02 nM; in [18] it was 0.02 nM; in [21] it was 508 nM; in [22], 3370 nM; in assay [23], 136 nM; in assay [24], 336 nM.

B3: δ3-42 (antibody, V domains shown)
VH: DVQLQESGPDLVKPSQSLSLTCTVTGYSITSGYNWHWIRQFPGNKLEWMGYIHYSGNTDYNPSLRSRISITRDTSKNQFFLHLNSVPTEDTATYYCARSGITTDWYFDVWGAGTTVTVSS
VL: QIVLSQSPAILSASPGEKVTMTCRASSSVNYMHWYQQKPGSSPKPWIYATSNLASGVPARFSGSGSGTSYSLTISKVEAEDAATYYCQQWSSHQPTFGAGTKLELK
For the molecule B3, the paired-competition value (Octet signal of the second antibody per paragraph 256) in assay [27] turned out to be 0.04; in assay [4], 0.03; in [20] it was 0.21; in [6], 0.04; in assay [19] it was 0.35. Moreover, the EC50 in [7] was 0.17 nM; in assay [9], 0.13 nM; in assay [10], 0.05 nM; in assay [11] it was 0.05 nM; in assay [15], 0.15 nM; in assay [17] it was 0.08 nM. Further, the EC50 was 0.07 nM in assay [18]; 49.3 nM in assay [28]; 106 nM in assay [21]; 258 nM in [22]; 199 nM in assay [23]; 449 nM in assay [24].
